# Experimental data published in patent US12139520B2 (priority 2020, dated 2024).
# Numbered stars: 1 amine (or outer) side, 2 acyl side, 3 side chain; on linkers, the order of the positions; unused ones are H or OH. Bridge positions count the residues as written; N and C are the ends. Square brackets hold non-standard residues; d marks the D form. Side chains are listed from the residue outwards. Ends that are not written are not given here. * marks the point of attachment. C20 diacid = O=C(O)CCCCCCCCCCCCCCCCCCC(=O)*; γGlu = O=C(O)[C@H](CCC(=O)[*:2])N[*:1]; Hyp = O=C(O)[C@@H]1C[C@@H](O)CN1; AEEA = NCCOCCOCC(=O)O
# T1: hAMY3R (human, UniProt P30988)
# T1 sequence 1: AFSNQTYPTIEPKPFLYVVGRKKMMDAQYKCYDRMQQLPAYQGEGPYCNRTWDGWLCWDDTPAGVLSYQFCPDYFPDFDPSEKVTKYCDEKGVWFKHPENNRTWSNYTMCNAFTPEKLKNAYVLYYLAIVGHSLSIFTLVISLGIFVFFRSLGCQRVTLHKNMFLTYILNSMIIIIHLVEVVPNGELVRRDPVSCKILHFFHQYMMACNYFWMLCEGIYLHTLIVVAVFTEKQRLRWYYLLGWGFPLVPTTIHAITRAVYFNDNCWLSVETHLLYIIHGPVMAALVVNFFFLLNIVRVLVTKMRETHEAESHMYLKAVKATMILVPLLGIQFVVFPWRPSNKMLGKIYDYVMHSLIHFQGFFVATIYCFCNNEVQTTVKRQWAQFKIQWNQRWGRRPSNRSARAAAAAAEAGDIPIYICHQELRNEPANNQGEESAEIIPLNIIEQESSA
# T1 sequence 2: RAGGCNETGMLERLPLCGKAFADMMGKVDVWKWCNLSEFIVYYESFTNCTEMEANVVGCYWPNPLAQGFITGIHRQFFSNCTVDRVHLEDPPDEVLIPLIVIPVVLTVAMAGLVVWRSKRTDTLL
# Assays:
# hAMY3R = target: T1, hAMY3R; assay: cell-based or functional assay
# hAM1R = hAM1R (human, UniProt Q16602); assay: cell-based or functional assay
hAMY3R EC50 (cAMP) (hAMY3R) [nM],hAM1R EC50 (cAMP) (hAM1R) [nM],Binder
0.011,78.5,GCRFGTCTVQRLAHQIYQFTDKDKDNVAPRTNIGPQG[Hyp]-NH2 (disulfide 2-7 (inferred); ends not checked) [SEQ ID NO: 46]
0.01,> 5000,KCNTATCTVQRLAEQIYQFTDKDKDK([AEEA-AEEA-γGlu-C20 diacid])VAPPTNVGSNG[Hyp]-NH2 (disulfide 2-7 (inferred); not fully specified (N-terminus); ends not checked) [SEQ ID NO: 41]
0.01,> 5000,KCNTATCTVQRLAEQIYQFTDKDKDNVAPPYNEGSNG[Hyp]-NH2 (disulfide 2-7 (inferred); ends not checked) [SEQ ID NO: 44]
0.024,0.243,GCRFATCTVQRLAHFLYQFTDKDKDNVAPRTKVGPQGY [SEQ ID NO: 377]
0.027,0.893,{C20 diacid-γGlu}-KCNFATCTVQRLAHQIYQFTDKDKDNVAPRTKVGSNGY-NH2 (disulfide 2-7 (inferred); ends not checked) [SEQ ID NO: 378]
0.017,10.3,{C20 diacid-γGlu}-KCNFATCTVQRLAHQIYQFTDKDKDNVAPRTEVGSNGY-NH2 (disulfide 2-7 (inferred); ends not checked) [SEQ ID NO: 370]
0.01,> 5000,KCNTATCTVQRLAHQIYQFTDKAKDNVAPPTNVGSNG[Hyp]-NH2 (disulfide 2-7 (inferred); ends not checked) [SEQ ID NO: 43]
0.01,> 5000,{C20 diacid-γGlu}-RCNTATCTVQRLAHQIYQFTDKDKDNVAPPTNVGSNG[Hyp]-NH2 (disulfide 2-7 (inferred); ends not checked) [SEQ ID NO: 39]
0.01,> 5000,{C20 diacid-γGlu}-KCNTATCTVNRLAHQIYQFTDKDKDNVAPPTNVGSNG[Hyp]-NH2 (disulfide 2-7 (inferred); ends not checked) [SEQ ID NO: 38]
0.113,5.03,{C20 diacid-γGlu}-GCRFGTCTVQRLAHFLYQFTDKDKDNVAPRTKVGPQGY-NH2 (disulfide 2-7 (inferred); ends not checked) [SEQ ID NO: 392]
0.011,761,{C20 diacid-γGlu}-KCNTATCTVQRLAHQIYQYTDKDKDNVAPPTNVGSNG[Hyp]-NH2 (disulfide 2-7 (inferred); ends not checked) [SEQ ID NO: 48]
0.031,0.162,{C20 diacid-γGlu}-GCRFATCTVQRLAHQIYQFTDKDKDNVAPRTKVGPQGY-NH2 (disulfide 2-7 (inferred); ends not checked) [SEQ ID NO: 380]
0.039,7.35,{C20 diacid-γGlu}-GCRFGTCTVQRLANFLYQFTDKDKDNVAPRTNVGPQGY-NH2 (disulfide 2-7 (inferred); ends not checked) [SEQ ID NO: 386]
0.01,> 5000,KCNTATCTVQRLAEQIYQFTDKDKK([AEEA-AEEA-γGlu-C20 diacid])NVAPPTNVGSNG[Hyp]-NH2 (disulfide 2-7 (inferred); not fully specified (N-terminus); ends not checked) [SEQ ID NO: 40]
0.011,2980,GCRTGTCTVQRLAHQIYQFTDKDKDNVAPRTNVGPQG[Hyp]-NH2 (disulfide 2-7 (inferred); ends not checked) [SEQ ID NO: 49]
0.011,500,{C20 diacid-γGlu}-KCNTATCTVQRLAYQIYQFTDKDKDNVAPPTNVGSNG[Hyp]-NH2 (disulfide 2-7 (inferred); ends not checked) [SEQ ID NO: 47]
0.02,3.94,{C20 diacid-γGlu}-GCRFGTCTVQRLANQIYQFTDKDKDNVAPRTNVGPQGY-NH2 (disulfide 2-7 (inferred); ends not checked) [SEQ ID NO: 372]
0.048,0.889,{C20 diacid-γGlu}-GCRFGTCTVQRLAHFLYQFTDKDKDNVAPRTKIGPQGY-NH2 (disulfide 2-7 (inferred); ends not checked) [SEQ ID NO: 390]

hAMY3R EC50 (cAMP) (hAMY3R) [nM],hAM1R EC50 (cAMP) (hAM1R) [nM],Binder
0.043,4.01,{C20 diacid-γGlu}-GCRFGTCTVQRLAHFLYQFTDKDKDNVAPRTNIGPQGY-NH2 (disulfide 2-7 (inferred); ends not checked) [SEQ ID NO: 388]
0.019,3.03,GCRFGTCTVQRLAHQIYQFTDKDKDNVAPRTKISPNGY [SEQ ID NO: 371]
0.04,0.992,GCRFGTCTVQRLAHQIYQFTDKDKDNVAPRSKIGPQGY [SEQ ID NO: 387]
0.036,1.09,GCRFGTCTVQRLAHQIYQFTDKDKDNVAPRSKVSPNGY [SEQ ID NO: 384]
0.029,0.458,GCRFGTCTVQRLAHQIYQFTDKDKDNVAPRTNIGPQGY [SEQ ID NO: 379]
0.022,0.403,GCRFGTCTVQRLAHQIYQFTDKDKDNVAPRSKVGPQGY [SEQ ID NO: 375]
0.022,12,GCRFGTCTVQRLAHFLYQFTDKDKDNVAPRTKIGSNGY [SEQ ID NO: 376]
0.02,7.71,GCRFGTCTVQRLAHQIYQFTDKDKDNVAPRSNVGPNGY [SEQ ID NO: 373]
0.036,7,GCRFGTCTVQRLAHQIYQFTDKDKDNVAPRTKVSPNGY [SEQ ID NO: 385]
0.034,5.93,GCRFGTCTVQRLAHQIYQFTDKDKDNVAPRSNISPNGY [SEQ ID NO: 383]
0.032,7.61,GCRFGTCTVQRLAHQIYQFTDKDKDNVAPRTNIGPNGY [SEQ ID NO: 381]
0.034,5.12,GCRFGTCTVQRLAHQIYQFTDKDKDNVAPRSNIGPQGY [SEQ ID NO: 382]
0.068,0.665,GCRFGTCTVQRLAHQIYQFTDKDKDNVAPRTKIGPQGY [SEQ ID NO: 391]
0.01,> 5000,KCNTATCTVQRLAHQIYAFTDKDKDNVAPPTNVGSNG[Hyp]-NH2 (disulfide 2-7 (inferred); ends not checked) [SEQ ID NO: 42]
0.021,12,GCRFGTCTVQRLAHQIYQFTDKDKDNVAPRSNVGPQGY [SEQ ID NO: 374]
0.011,50.5,GCRFGTCTVQRLAHQIYQFTDKDKDNVAPRTKVGPQG[Hyp]-NH2 (disulfide 2-7 (inferred); ends not checked) [SEQ ID NO: 45]
0.045,1.04,{C20 diacid-γGlu}-KCNFATCATQRLANFLVQFTDKDKDNVAPRSKIGPQGY-NH2 (disulfide 2-7 (inferred); ends not checked) [SEQ ID NO: 389]
